{"source": "patent US20060110789", "key": {"[1]": {"molecular_target": "T1, M3+TE (module 3 of DEBS with its own N-terminal linker, fused to thioesterase), Q03132", "T1 chain": "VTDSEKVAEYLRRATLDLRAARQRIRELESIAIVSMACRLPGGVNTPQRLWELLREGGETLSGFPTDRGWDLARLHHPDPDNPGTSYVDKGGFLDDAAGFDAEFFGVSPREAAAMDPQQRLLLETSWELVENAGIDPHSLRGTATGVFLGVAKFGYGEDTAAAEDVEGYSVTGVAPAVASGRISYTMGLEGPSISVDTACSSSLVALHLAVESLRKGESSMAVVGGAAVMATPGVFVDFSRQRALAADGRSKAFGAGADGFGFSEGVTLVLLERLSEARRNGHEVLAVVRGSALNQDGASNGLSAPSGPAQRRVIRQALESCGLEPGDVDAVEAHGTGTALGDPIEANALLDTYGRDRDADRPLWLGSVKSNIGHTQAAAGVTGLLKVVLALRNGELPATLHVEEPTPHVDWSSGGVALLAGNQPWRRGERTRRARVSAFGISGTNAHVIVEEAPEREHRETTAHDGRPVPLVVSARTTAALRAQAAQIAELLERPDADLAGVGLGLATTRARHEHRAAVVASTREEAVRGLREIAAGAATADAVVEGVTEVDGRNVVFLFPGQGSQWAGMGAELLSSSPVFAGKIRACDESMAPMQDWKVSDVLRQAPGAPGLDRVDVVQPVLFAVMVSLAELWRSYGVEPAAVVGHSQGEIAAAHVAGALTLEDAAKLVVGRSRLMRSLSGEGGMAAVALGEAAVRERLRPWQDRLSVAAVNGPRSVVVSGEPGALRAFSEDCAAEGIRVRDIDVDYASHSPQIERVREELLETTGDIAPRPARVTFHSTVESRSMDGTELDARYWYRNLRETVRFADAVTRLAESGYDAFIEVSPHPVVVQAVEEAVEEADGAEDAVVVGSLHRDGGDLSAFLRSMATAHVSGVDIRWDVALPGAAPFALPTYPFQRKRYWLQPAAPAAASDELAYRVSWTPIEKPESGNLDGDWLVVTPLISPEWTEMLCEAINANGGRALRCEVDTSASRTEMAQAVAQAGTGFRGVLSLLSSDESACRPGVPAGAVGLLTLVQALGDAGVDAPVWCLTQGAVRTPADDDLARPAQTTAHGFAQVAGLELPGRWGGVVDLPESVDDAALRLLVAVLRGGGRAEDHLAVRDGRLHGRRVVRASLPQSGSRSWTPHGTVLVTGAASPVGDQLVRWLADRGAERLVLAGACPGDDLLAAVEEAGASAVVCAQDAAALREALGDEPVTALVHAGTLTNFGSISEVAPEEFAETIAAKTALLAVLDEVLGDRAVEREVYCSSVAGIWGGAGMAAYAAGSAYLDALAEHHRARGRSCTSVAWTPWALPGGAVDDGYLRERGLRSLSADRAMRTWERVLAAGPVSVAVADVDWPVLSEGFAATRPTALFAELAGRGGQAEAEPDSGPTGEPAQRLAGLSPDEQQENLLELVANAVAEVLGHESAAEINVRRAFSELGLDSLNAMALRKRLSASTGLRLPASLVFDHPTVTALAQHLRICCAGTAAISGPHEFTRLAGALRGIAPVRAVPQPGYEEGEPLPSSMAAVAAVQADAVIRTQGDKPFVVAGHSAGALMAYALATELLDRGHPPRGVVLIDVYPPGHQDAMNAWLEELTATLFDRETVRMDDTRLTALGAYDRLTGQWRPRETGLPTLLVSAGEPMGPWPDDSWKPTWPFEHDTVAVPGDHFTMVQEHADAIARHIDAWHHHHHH"}, "[2]": {"molecular_target": "T2, (5)M3+TE (module 3 of DEBS with the N-terminal linker of module 5, fused to thioesterase), Q03132", "T2 chain": "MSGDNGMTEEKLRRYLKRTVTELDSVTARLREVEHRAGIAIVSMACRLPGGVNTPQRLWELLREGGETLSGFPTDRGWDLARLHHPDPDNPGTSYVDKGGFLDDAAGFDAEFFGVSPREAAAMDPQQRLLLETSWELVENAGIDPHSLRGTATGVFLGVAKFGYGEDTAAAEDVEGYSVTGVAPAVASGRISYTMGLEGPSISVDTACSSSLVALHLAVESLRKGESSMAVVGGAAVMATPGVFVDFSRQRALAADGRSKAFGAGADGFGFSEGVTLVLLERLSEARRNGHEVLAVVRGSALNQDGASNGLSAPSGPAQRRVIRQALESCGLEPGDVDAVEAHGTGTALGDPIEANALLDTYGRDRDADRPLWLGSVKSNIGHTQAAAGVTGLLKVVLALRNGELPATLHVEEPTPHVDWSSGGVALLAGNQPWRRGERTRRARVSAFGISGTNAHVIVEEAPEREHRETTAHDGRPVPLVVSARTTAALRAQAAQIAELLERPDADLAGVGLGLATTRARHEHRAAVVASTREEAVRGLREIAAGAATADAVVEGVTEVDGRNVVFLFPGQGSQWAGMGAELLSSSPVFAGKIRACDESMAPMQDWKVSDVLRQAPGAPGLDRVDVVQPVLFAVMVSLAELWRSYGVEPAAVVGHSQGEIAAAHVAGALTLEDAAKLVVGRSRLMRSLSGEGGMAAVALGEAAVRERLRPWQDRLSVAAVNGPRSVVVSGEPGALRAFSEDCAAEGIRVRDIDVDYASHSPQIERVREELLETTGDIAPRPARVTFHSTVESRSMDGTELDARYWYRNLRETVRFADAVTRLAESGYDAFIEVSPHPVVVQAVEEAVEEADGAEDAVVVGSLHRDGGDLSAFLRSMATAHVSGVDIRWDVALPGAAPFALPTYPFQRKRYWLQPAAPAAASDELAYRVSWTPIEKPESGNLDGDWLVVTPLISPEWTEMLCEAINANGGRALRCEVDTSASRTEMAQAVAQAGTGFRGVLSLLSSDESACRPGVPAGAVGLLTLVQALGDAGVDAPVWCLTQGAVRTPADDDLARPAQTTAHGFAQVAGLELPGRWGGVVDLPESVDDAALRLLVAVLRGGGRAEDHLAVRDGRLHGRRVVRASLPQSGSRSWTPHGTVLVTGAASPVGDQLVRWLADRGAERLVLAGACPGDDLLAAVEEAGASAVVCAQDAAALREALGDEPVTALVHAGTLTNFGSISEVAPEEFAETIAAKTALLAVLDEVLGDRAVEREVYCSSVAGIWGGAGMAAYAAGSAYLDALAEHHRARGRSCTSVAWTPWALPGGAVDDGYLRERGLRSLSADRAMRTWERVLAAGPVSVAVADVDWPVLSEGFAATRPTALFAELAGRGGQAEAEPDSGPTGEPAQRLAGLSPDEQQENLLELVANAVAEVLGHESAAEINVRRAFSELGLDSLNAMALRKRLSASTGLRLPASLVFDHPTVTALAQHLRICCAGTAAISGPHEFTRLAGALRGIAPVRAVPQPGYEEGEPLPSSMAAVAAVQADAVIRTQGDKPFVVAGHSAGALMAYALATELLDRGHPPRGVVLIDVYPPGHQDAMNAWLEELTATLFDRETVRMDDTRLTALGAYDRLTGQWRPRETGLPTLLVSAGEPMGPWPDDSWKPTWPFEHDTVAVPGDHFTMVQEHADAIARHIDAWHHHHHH"}}}
{"protein": "M2(4) (module 2 of DEBS with the C-terminal linker of module 4) (protein) MSGDNGMTEEKLRRYLKRTVTELDSVTARLREVEHRAGIAIVGMACRLPGEVDSPERLWELITSGRDSAAEVPDDRGWVPDELMASDAAGTRAHGNFMAGAGDFDAAFFGISPREALAMDPQQRQALETTWEALESAGIPPETLRGSDTGVFVGMSHQGYATGRPRPEDGVDGYLLTGNTASVASGRIAYVLGLEGPALTVDTACSSSLVALHTACGSLRDGDCGLAVAGGVSVMAGPEVFTEFSRQGALSPDGRCKPFSDEADGFGLGEGSAFVVLQRLSDARREGRRVLGVVAGSAVNQDGASNGLSAPSGVAQQRVIRRAWARAGITGADVAVVEAHGTGTRLGDPVEASALLATYGKSRGSSGPVLLGSVKSNIGHAQAAAGVAGVIKVLLGLERGVVPPMLCRGERSGLIDWSSGEIELADGVREWSPAADGVRRAGVSAFGVSGTNAHVIIAEPPEPEPVPQPRRMLPATGVVPVVLSARTGAALRAQAGRLADHLAAHPGIAPADVSWTMARARQHFEERAAVLAADTAEAVHRLRAVADGAVVPGVVTGSASDGGSVFVFPGQGAQWEGMARELLPVPVFAESIAECDAVLSEVAGFSVSEVLEPRPDAPSLERVDVVQPVLFAVMVSLARLWRACGAVPSAVIGHSQGEIAAAVVAGALSLEDGMRVVARRSRAVRAVAGRGSMLSVRGGRSDVEKLLADDSWTGRLEVAAVNGPDAVVVAGDAQAAREFLEYCEGVGIRARAIPVDYASHTAHVEPVRDELVQALAGITPRRAEVPFFSTLTGDFLDGTELDAGYWYRNLRHPVEFHSAVQALTDQGYATFIEVSPHPVLASSVQETLDDAESDAAVLGTLERDAGDADRFLTALADAHTRGVAVDWEAVLGRAGLVDLPGYPFQGKRFWLLPDRTTPRDELDGWFYRVDWTEVPRSEPAALRGRWLVVVPEGHEEDGWTVEVRSALAEAGAEPEVTRGVGGLVGDCAGVVSLLALEGDGAVQTLVLVRELDAEGIDAPLWTVTFGAVDAGSPVARPDQAKLWGLGQVASLERGPRWTGLVDLPHMPDPELRGRLTAVLAGSEDQVAVRADAVRARRLSPAHVTATSEYAVPGGTILVTGGTAGLGAEVARWLAGRGAEHLALVSRRGPDTEGVGDLTAELTRLGARVSVHACDVSSREPVRELVHGLIEQGDVVRGVVHAAGLPQQVAINDMDEAAFDEVVAAKAGGAVHLDELCSDAELFLLFSSGAGVWGSARQGAYAAGNAFLDAFARHRRGRGLPATSVAWGLWAAGGMTGDEEAVSFLRERGVRAMPVPRALAALDRVLASGETAVVVTDVDWPAFAESYTAARPRPLLDRIVTTAPSERAGEPETESLRDRLAGLPRAERTAELVRLVRTSTATVLGHDDPKAVRATTPFKELGFDSLAAVRLRNLLNAATGLRLPSTLVFDHPNASAVAGFLDFAASPAVDIGDRLDELEKALEALSAEDGHDDVGQRLESLLRRWNSRRADAPSTSAISEDASDDELFSMLDQRFGGGEDL", "values": [{"measurement": "highest rate constant of tetraketide lactone 2 formation (mismatched linkers)", "setting": "[1]", "value": "in the range of 0.02-0.03 min^-1"}, {"measurement": "KM, fold increase against the natural linker pair (M2 with M3+TE)", "setting": "[2]", "value": "the increase in KM value upon swapping in the alternate linker pair is a more modest 2-fold"}, {"measurement": "kcat of tetraketide lactone 2 synthesis", "setting": "[2]", "value": "kcat of 0.74±0.06 min^-1"}]}
